B1: HSP90AB1 (parent)
chain: QVANSAFVERVRKRGFEVVYMTEP
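Also: lentivirally expressed fusions sorted by FACS into six bins by GFP to DsRed ratio, PSI derived from sequencing read proportions per bin multiplied by bin number.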

Variants of: B1
Assay: protein stability index of a GFP-peptide fusion (GPS, HEK-293T) (PSI 1-6); higher = more stable
Conditions: c terminus: a fixed tail appended
Work on QVANSAFKERVRKRGFEVVYMTEP [V8K] yielded a protein stability index of 2.54. QVANSAFWERVRKRGFEVVYMTEP [V8W] showed a protein stability index of 1.47. Work on QVANSAFYERVRKRGFEVVYMTEP [V8Y] yielded a protein stability index of 2.7. Work on QVANSAFVSRVRKRGFEVVYMTEP [E9S] yielded a protein stability index of 1.63. For QVANSAFVCRVRKRGFEVVYMTEP [E9C], the protein stability index was 2.07. In the case of QVANSAFVFRVRKRGFEVVYMTEP [E9F], the protein stability index is reported as 2.16. Variant QVANSAFVRRVRKRGFEVVYMTEP [E9R] has a protein stability index of 1.93. With QVANSAFVVRVRKRGFEVVYMTEP [E9V] the protein stability index was 1.97. With QVANSAFVMRVRKRGFEVVYMTEP [E9M] the protein stability index was 2.69. QVANSAFVPRVRKRGFEVVYMTEP [E9P] showed a protein stability index of 2.56. Work on QVAFSAFVERVRKRGFEVVYMTEP [N4F] yielded a protein stability index of 2.16. In the case of QVADSAFVERVRKRGFEVVYMTEP [N4D], the protein stability index is reported as 3.01. QVATSAFVERVRKRGFEVVYMTEP [N4T] gave a protein stability index of 1.78. QVASSAFVERVRKRGFEVVYMTEP [N4S] gave a protein stability index of 2.21. For QVAKSAFVERVRKRGFEVVYMTEP [N4K], the protein stability index was 1.96. In the case of QVAWSAFVERVRKRGFEVVYMTEP [N4W], the protein stability index is reported as 1.94. In the case of QVANSAFVERVSKRGFEVVYMTEP [R12S], the protein stability index is reported as 2.87. Work on QVANSAFVERVGKRGFEVVYMTEP [R12G] yielded a protein stability index of 2.59. With QVANSAPVERVRKRGFEVVYMTEP [F7P] the protein stability index was 3.28. Variant QVANSADVERVRKRGFEVVYMTEP [F7D] has a protein stability index of 3.56. Variant QVANSATVERVRKRGFEVVYMTEP [F7T] has a protein stability index of 3.42. Variant QVANSARVERVRKRGFEVVYMTEP [F7R] has a protein stability index of 2.75. QVANSAWVERVRKRGFEVVYMTEP [F7W] showed a protein stability index of 1.99. Work on QVANSAFVERVRKRGFEVVHMTEP [Y20H] yielded a protein stability index of 3.07. QVANSAFVERVRKRGFEVVLMTEP [Y20L] showed a protein stability index of 2.22. In the case of QVANSAFVERVRKRGFEVVPMTEP [Y20P], the protein stability index is reported as 2.81. For QVANSAFVERVRKRGFEVVQMTEP [Y20Q], the protein stability index was 3.41. With QVANSAFVERVRKRGFEVVCMTEP [Y20C] the protein stability index was 2.99. Variant QVANSAFVERVRKRGFEVVDMTEP [Y20D] has a protein stability index of 3.06. QVANRAFVERVRKRGFEVVYMTEP [S5R] showed a protein stability index of 1.77. Variant QVANDAFVERVRKRGFEVVYMTEP [S5D] has a protein stability index of 2.59. Variant QVANTAFVERVRKRGFEVVYMTEP [S5T] has a protein stability index of 2.46. QVANLAFVERVRKRGFEVVYMTEP [S5L] gave a protein stability index of 2.12. QVANEAFVERVRKRGFEVVYMTEP [S5E] showed a protein stability index of 2. QVANGAFVERVRKRGFEVVYMTEP [S5G] gave a protein stability index of 2.02. QVANSFFVERVRKRGFEVVYMTEP [A6F] showed a protein stability index of 1.73. For QVANSRFVERVRKRGFEVVYMTEP [A6R], the protein stability index was 2.71. QVANSLFVERVRKRGFEVVYMTEP [A6L] gave a protein stability index of 2.09. With QVANSEFVERVRKRGFEVVYMTEP [A6E] the protein stability index was 2.86. QGANSAFVERVRKRGFEVVYMTEP [V2G] gave a protein stability index of 2.59. Variant QSANSAFVERVRKRGFEVVYMTEP [V2S] has a protein stability index of 2.69. With QRANSAFVERVRKRGFEVVYMTEP [V2R] the protein stability index was 2.6. For QAANSAFVERVRKRGFEVVYMTEP [V2A], the protein stability index was 2.87. With QMANSAFVERVRKRGFEVVYMTEP [V2M] the protein stability index was 2.18. With LVANSAFVERVRKRGFEVVYMTEP [Q1L] the protein stability index was 2.27. CVANSAFVERVRKRGFEVVYMTEP [Q1C] gave a protein stability index of 1.57. VVANSAFVERVRKRGFEVVYMTEP [Q1V] gave a protein stability index of 2.73. In the case of AVANSAFVERVRKRGFEVVYMTEP [Q1A], the protein stability index is reported as 2.29. For DVANSAFVERVRKRGFEVVYMTEP [Q1D], the protein stability index was 2.21. QVANSAFVERVRKRGFEVVYQTEP [M21Q] gave a protein stability index of 3.1. Work on QVANSAFVERVRKRGFEVVYRTEP [M21R] yielded a protein stability index of 3.33. For QVANSAFVERVRKRGFEVVYHTEP [M21H], the protein stability index was 3.37. In the case of QVANSAFVERVRKRGFEVVYETEP [M21E], the protein stability index is reported as 3.06. QVANSAFVERVRKRGFEVVYLTEP [M21L] gave a protein stability index of 2.6. With QVANSAFVERVRKRGFEVVYMTSP [E23S] the protein stability index was 2.54. Variant QVANSAFVERVRKRGFEVVYMTFP [E23F] has a protein stability index of 1.62. For QVANSAFVERVRKRGFEVVYMTWP [E23W], the protein stability index was 2.14. Work on QVANSAFVERVRKRGFEVVYMTVP [E23V] yielded a protein stability index of 2.38. With QVANSAFVERVRKRGFEVVYMTLP [E23L] the protein stability index was 1.16. QVANSAFVERVRKRGFEVVYMTRP [E23R] gave a protein stability index of 2.47. In the case of QVANSAFVERVRKRGFEVVYMTHP [E23H], the protein stability index is reported as 1.95. In the case of QVANSAFVERVRKRGFEVVYMTYP [E23Y], the protein stability index is reported as 1.66. QVANSAFVERVRKRGFEVAYMTEP [V19A] gave a protein stability index of 2.83. Variant QVANSAFVERVRKRGFEVQYMTEP [V19Q] has a protein stability index of 2.33. In the case of QVANSAFVERVRKRGFEVPYMTEP [V19P], the protein stability index is reported as 2.79. For QVANSAFVERVRKRGFEVCYMTEP [V19C], the protein stability index was 2.79. With QVANSAFVERVRKRGFEVLYMTEP [V19L] the protein stability index was 2.09. Work on QVANSAFVECVRKRGFEVVYMTEP [R10C] yielded a protein stability index of 2.05. QVANSAFVEYVRKRGFEVVYMTEP [R10Y] showed a protein stability index of 1.58. Variant QVANSAFVEAVRKRGFEVVYMTEP [R10A] has a protein stability index of 2.18. QVANSAFVETVRKRGFEVVYMTEP [R10T] showed a protein stability index of 2.29. QVANSAFVEQVRKRGFEVVYMTEP [R10Q] showed a protein stability index of 2.17. QVANSAFVELVRKRGFEVVYMTEP [R10L] showed a protein stability index of 1.81. Variant QVANSAFVERVRKRGFECVYMTEP [V18C] has a protein stability index of 2.38. QVANSAFVERVRKRGFEPVYMTEP [V18P] gave a protein stability index of 2.47. Work on QVANSAFVERVRKRGFETVYMTEP [V18T] yielded a protein stability index of 2.67. For QVANSAFVERVRKRGFEFVYMTEP [V18F], the protein stability index was 1.85. QVANSAFVERVRKRGFENVYMTEP [V18N] showed a protein stability index of 3.1. Variant QVPNSAFVERVRKRGFEVVYMTEP [A3P] has a protein stability index of 2.69. In the case of QVGNSAFVERVRKRGFEVVYMTEP [A3G], the protein stability index is reported as 2.28. QVDNSAFVERVRKRGFEVVYMTEP [A3D] showed a protein stability index of 2.11. For QVENSAFVERVRKRGFEVVYMTEP [A3E], the protein stability index was 2.69. QVMNSAFVERVRKRGFEVVYMTEP [A3M] gave a protein stability index of 2.26. Variant QVWNSAFVERVRKRGFEVVYMTEP [A3W] has a protein stability index of 1.91. QVCNSAFVERVRKRGFEVVYMTEP [A3C] gave a protein stability index of 2.01. For QVANSAFVERVRKRGFEVVYMTEQ [P24Q], the protein stability index was 2.52. Variant QVANSAFVERVRKRGFEVVYMTEL [P24L] has a protein stability index of 1.21. For QVANSAFVERVRKRGFEVVYMTEY [P24Y], the protein stability index was 1.89. In the case of QVANSAFVERVRKRGFEVVYMTEN [P24N], the protein stability index is reported as 2.32. QVANSAFVERVRKRGFEVVYMTEI [P24I] gave a protein stability index of 2.03. Variant QVANSAFVERVRKRGFEVVYMTEE [P24E] has a protein stability index of 3.13. For QVANSAFVERVRKRGFFVVYMTEP [E17F], the protein stability index was 4.31. In the case of QVANSAFVERVRKRGFPVVYMTEP [E17P], the protein stability index is reported as 2.02. Variant QVANSAFVERVRKRGFRVVYMTEP [E17R] has a protein stability index of 2.19.
